Molecular target: Glutathione peroxidase 4 (GPX4), endogenous in OS-RC-2 cells (Homo sapiens, OS-RC-2 cells, UniProt P36969)
Test: pull-down

B1: 4C-R10 (nanobody 4C fused at its C-terminus through an SGSGSG linker to the arginine-rich R10 cell-penetrating peptide) (VHH)
VHH: EVQLEESGGGSVQAGGSLRLSCAAPGDTSSRYYMGWFRQAPGKEREGVAGFSTGLGRTTYADSVKGRFTISQDNAKNTIYLQMNSLKVEDTAMYYCATGRAWAAGSPMYGPFDSRRYNYWGQGTQVTVSS
B1: binds.

Reference: PMC11575642 (Chemical Science, 2024)
